{"source": "patent US20070086956A1", "about": "“Method for accelerating the rate of mucociliary clearance” (BAYER AKTIENGESELLSCHAFT, priority 1998, published 2007)", "molecules": {"B1": {"name": "CHO Bikunin (1-170): Glycosylated placental bikunin (1-170), SEQ ID NO: 52, expressed in Chinese hamster ovary cells (Example 17) (protein, listed as Homo sapiens)", "chain": "ADRERSIHDFCLVSKVVGRCRASMPRWWYNVTDGSCQLFVYGGCDGNSNNYLTKEECLKKCATVTENATGDLATSRNAADSSVPSAPRRQDSEDHSSDMFNYEEYCTANAVTGPCRASFPRWYFDVERNSCNNFIYGGCRGNKNSYRSEEACMLRCFRQQENPPLPLGSK", "modifications": "glycosylated, CHO-expressed"}}, "key": {"[1]": {"system": "ovine tracheal epithelial cells", "test": "Short circuit current (Isc) in cultured ovine tracheal epithelial (OTE) cells", "format": "cell-based", "details": "100 ug/mL; over a 90 minute period; FIG. 24", "procedure": "The aim of this study was to investigate the effect of Bikunin (1-170) (See Example 17), on Isc in OTE cells in vitro. OTE cells were seeded onto 1.2 cm diameter, 0.4 um pore size Snapwell™ inserts (Costar UK). Cells were grown to confluence and mounted in modified Ussing chambers 3-5 days after placement on air-liquid interface. Inserts were immersed in Krebs buffer (KBR) solution and bubbled with 95% O2/5% CO2 warmed to 37° C.\nAfter a 20 minute equilibration period, transepithelial potential difference was then clamped to 0 mV using a WPI EVC 4000 voltage clamp. Ag/AgCl electrodes were used to monitor Isc. Once a stable baseline was achieved (typically 30 mins), cells were treated with amiloride (10 uM). Once a response to amiloride was obtained, it was washed out with KBR solution. After return to baseline, Bikunin (1-170) described in Example 17 (25, 50 or 100 ug/mL) or PBS was added. 90 minutes following agent treatment amiloride (10 uM) was again added."}, "[2]": {"system": "human bronchial epithelial cell (HBE)", "details": "cited from earlier work"}, "[3]": {"system": "human bronchial epithelial cell (HBE)", "test": "Short circuit current (Isc) in cultured human bronchial epithelial (HBE) cells, Ussing chamber", "format": "cell-based", "details": "for sodium current: over a 90 minute period, FIG. 17", "method": "Tertiary HBE cell monolayer grown to confluence were mounted in modified Ussing chambers, immersed in Krebs buffer (KBR) solution and bubbled with 95% O2/5% CO2 warmed to 37 C.\nCells were left to equilibrate for 20 minutes before calibrating for background noise and fluid resistance. Transepithelial potential difference was then clamped to 0 mV using a WPI EVC 4000 voltage clamp. Ag/AgCl electrodes were used to monitor Isc. […] Once a response to amiloride was seen, it was washed out with KBR solution. […] 90 minutes following agent treatment, amiloride (10 uM) was added. Once the current was stable forskolin (10 uM) and then bumetanide (100 uM) was added.\nTertiary HBE cell monolayers grown to confluence were mounted in modified Ussing chambers, immersed in Krebs buffer (KBR) solution and bubbled with 95% O2/5% CO2 warmed to 37 C.\nCells were left to equilibrate for 20 minutes before calibrating for background noise and fluid resistance. Transepithelial potential difference was then clamped to 0 mV using a WPI EVC 4000 voltage clamp. Ag/AgCI electrodes were used to monitor Isc. […] Once a response to amiloride was seen, it was washed out with KBR solution. […] 90 minutes following agent treatment, amiloride (10 uM) was added."}}, "note": "Read-outs that look alike come from different tables or passages of the source.", "data": [{"molecule": "B1", "values": [{"measurement": "sodium current", "setting": "[1]", "result": "significantly inhibited sodium current"}, {"measurement": "inhibition of the baseline Isc", "setting": "[2]; 70 nM, in 90 minutes (McAulay et al 1998)", "result": 58, "unit": "%"}, {"measurement": "inhibition of Na+ Isc", "setting": "[2]; 1.5 ug.ml−1: 70 nM, normal HBE cells, n=5-8 (McAulay et al 1998)", "result": 54, "unit": "%"}, {"measurement": "Forskolin induced cAMP-mediated chloride secretion and monolayer resistance", "setting": "[3]; 70 nM", "result": "unaffected"}, {"measurement": "sodium current", "setting": "[3]; 70 nM", "result": "decreases sodium current"}, {"measurement": "sodium current", "setting": "[3]; 70 nM, listed as Bukinin", "result": "inhibited sodium current"}, {"measurement": "inhibition of Na+ Isc", "setting": "[3]; 5 ug.ml−1, normal HBE cells, n=6, further study", "result": 84, "unit": "%"}, {"measurement": "sodium short circuit current", "setting": "[3]; 5 ug/mL, FIG. 20", "result": "decrease sodium short circuit current"}]}]}
